According to PMC7949036, “Zinc transporter mutations linked to acrodermatitis enteropathica disrupt function and cause mistrafficking” (The Journal of Biological Chemistry, 2021):
Changes are numbered by the printed parent chain. Names and notes keep the numbering of the source.

B1: extracellular domain of ZIP4 from Pteropus alecto (black fruit bat), wild type (domain or fragment, UniProt L5KLU7 36-322, looked up)
chain: SGQGALDRVALGGLLNTLAARVHCTSGPCGKCLSVDDLLALGRPEEPGHLARLSAAAALYLSDPEGTCEDIRAGRWASRADHLLALLEGPKALAPGLSRLLQRIQAQTTGQPSAGEACVDPPQLLREAGVAGAPGSPGPVLATLLEHVGRGSCFHTLPTPQYFVDFVFQQSHGNTPNISVAELAALMQRLGVGGVTETHSDHHHQEKRVNRQGPTPLTAPNSSSDTWDTVCLSARDVMAVYGLSEQTGVTPEAWAQLSPALLQQQLSGACSPQPSHPAQNQLSQAEK
notes: ZIP4 (zinc transporter, SLC39A family) of Pteropus alecto, extracellular domain, residues 36-322 of ELK11751; His6 tag removed by thrombin; also called pZIP4-ECD; wild-type pZIP4-ECD; source: E. coli Origami B(DE3) pLysS, purified (Ni-NTA, Mono-Q, SEC); not shown: His6, N-terminal, cleaved
B2: pZIP4-ECD C64R variant (domain or fragment, Pteropus alecto, UniProt L5KLU7 36-322, looked up)
chain: B1 chain with C29R
notes: ZIP4 of Pteropus alecto, extracellular domain, residues 36-322 of ELK11751, with C64R (equivalent to C62R of human ZIP4); source: E. coli Origami B(DE3) pLysS, purified (Ni-NTA, Mono-Q, SEC); not shown: His6, N-terminal, cleaved
B3: pZIP4-ECD A91T variant (domain or fragment, Pteropus alecto, UniProt L5KLU7 36-322, looked up)
chain: B1 chain with A56T
notes: ZIP4 of Pteropus alecto, extracellular domain, residues 36-322 of ELK11751, with A91T (equivalent to A99T of human ZIP4); source: E. coli Origami B(DE3) pLysS, purified (Ni-NTA, Mono-Q, SEC); not shown: His6, N-terminal, cleaved
B4: pZIP4-ECD R87C variant (domain or fragment, Pteropus alecto, UniProt L5KLU7 36-322, looked up)
chain: B1 chain with R52C
notes: ZIP4 of Pteropus alecto, extracellular domain, residues 36-322 of ELK11751, with R87C (equivalent to R95C of human ZIP4); source: E. coli Origami B(DE3) pLysS, purified (Ni-NTA, Mono-Q, SEC); not shown: His6, N-terminal, cleaved
B5: pZIP4-ECD P193L variant (domain or fragment, Pteropus alecto, UniProt L5KLU7 36-322, looked up)
chain: B1 chain with P158L
notes: ZIP4 of Pteropus alecto, extracellular domain, residues 36-322 of ELK11751, with P193L (equivalent to P200L of human ZIP4); source: E. coli Origami B(DE3) pLysS, purified (Ni-NTA, Mono-Q, SEC); not shown: His6, N-terminal, cleaved
B6: hZIP4 (human ZIP4): N261Q (protein)
parent chain: MASLVSLELGLLLAVLVVTATASPPAGLLSLLTSGQGALDQEALGGLLNTLADRVHCANGPCGKCLSVEDALGLGEPEGSGLPPGPVLEARYVARLSAAAVLYLSNPEGTCEDARAGLWASHADHLLALLESPKALTPGLSWLLQRMQARAAGQTPKMACVDIPQLLEEAVGAGAPGSAGGVLAALLDHVRSGSCFHALPSPQYFVDFVFQQHSSEVPMTLAELSALMQRLGVGREAHSDHSHRHRGASSRDPVPLISSSNSSSVWDTVCLSARDVMAAYGLSEQAGVTPEAWAQLSPALLQQQLSGACTSQSRPPVQDQLSQSERYLYGSLATLLICLCAVFGLLLLTCTGCRGVTHYILQTFLSLAVGAVTGDAVLHLTPKVLGLHTHSEEGLSPQPTWRLLAMLAGLYAFFLFENLFNLLLPRDPEDLEDGPCGHSSHSHGGHSHGVSLQLAPSELRQPKPPHEGSRADLVAEESPELLNPEPRRLSPELRLLPYMITLGDAVHNFADGLAVGAAFASSWKTGLATSLAVFCHELPHELGDFAALLHAGLSVRQALLLNLASALTAFAGLYVALAVGVSEESEAWILAVATGLFLYVALCDMLPAMLKVRDPRPWLLFLLHNVGLLGGWTVLLLLSLYEDDITF

How the values were obtained:
[1] = target: the molecule itself; assay: SEC; Superdex 200 10/300GL, 10 mM HEPES pH 7.3, 100 mM NaCl; apparent molecular weight estimated from protein standards; native purified protein
[2] = confocal immunofluorescence, FITC anti-HA, nonpermeabilized cells; conditions: glycan lost; control: wild type
[3] = cell-based 65Zn uptake, HEK293T; conditions: glycan lost; control: wild type

| Protein | binding result [1] | other results |
| --- | --- | --- |
| B1 |  | stoichiometry N [1]: 2 |
| B2 | binds |  |
| B3 | binds |  |
| B4 | binds |  |
| B5 | binds |  |
| B6 |  | localisation_or_trafficking [2]: no change; other: transport activity [3]: decreases |
